Publication PMC5322571, “Selection of DNA Aptamers for Ovarian Cancer Biomarker CA125 Using One-Pot SELEX and High-Throughput Sequencing”

What was measured:
Details in all cases: protein: commercial; label: 5' TEX615 (Texas Red) for FA; FAM for APCE; single strand
[1] = molecular target: T1, CA125 (Cancer Antigen 125, mucin glycoprotein) (human, UniProt Q8WXI7 1-14451); assay: fluorescence anisotropy; FA: 100 nM aptamer heat cycled in TGKM (25 mM Tris, 192 mM glycine, 5 mM KH2PO4, 1 mM MgCl2, pH 8.3), CA125 0-2000 U/mL in PBS, 0.13 mg/mL BSA, 90 min RT, read
[2] = molecular target: T1, CA125 (Cancer Antigen 125, mucin …); assay: fluorescence anisotropy; heat cycled in PBS without Mg2+; FA: 100 nM aptamer heat cycled in TGKM (25 mM Tris, 192 mM glycine, 5 mM KH2PO4, 1 mM MgCl2, pH 8.3), CA125 0-2000 U/mL in PBS, 0.13 mg/mL BSA, 90 min RT, read
[3] = molecular target: T1, CA125 (Cancer Antigen 125, mucin …); assay: affinity probe capillary electrophoresis; heat cycled in TE without Mg2+; TGK run buffer; FA: 100 nM aptamer heat cycled in TGKM (25 mM Tris, 192 mM glycine, 5 mM KH2PO4, 1 mM MgCl2, pH 8.3), CA125 0-2000 U/mL in PBS, 0.13 mg/mL BSA, 90 min RT, read
[4] = molecular target: T1, CA125 (Cancer Antigen 125, mucin …); assay: affinity probe capillary electrophoresis; TGKM (1 mM Mg2+); FA: 100 nM aptamer heat cycled in TGKM (25 mM Tris, 192 mM glycine, 5 mM KH2PO4, 1 mM MgCl2, pH 8.3), CA125 0-2000 U/mL in PBS, 0.13 mg/mL BSA, 90 min RT, read
[5] = molecular target: T1, CA125 (Cancer Antigen 125, mucin …); assay: fluorescence anisotropy; heat cycled with Mg2+ (5 mM in Results; TGKM is 1 mM in Methods); FA: 100 nM aptamer heat cycled in TGKM (25 mM Tris, 192 mM glycine, 5 mM KH2PO4, 1 mM MgCl2, pH 8.3), CA125 0-2000 U/mL in PBS, 0.13 mg/mL BSA, 90 min RT, read

Binder: TTCAATATTACTTATCTTTTTTTTT (ssDNA) [CA125_3 (without primer regions)]
- binding result [1]: no binding

Binder: TGCCTTATTACTCTCTCCTGTTAAC (ssDNA) [CA125_12 (CA125_12_NP, without primer regions)]
- Kd [2]: 118 ± 123 U/mL
- Kd [3]: 131 ± 93 U/mL

Binder: ACTAGCTCCGATCTTTCTTATCTAC (ssDNA) [CA125_1 (CA125_1_NP, without primer regions)]
- Kd [4]: 80 ± 38 U/mL
- Kd [5]: 207 ± 109 U/mL

Binder: CACTCTTTCATTTTATTTATAATTAT (ssDNA) [CA125_2 (without primer regions)]
- binding result [1]: no binding
